The text below walks through data of US5652340.

The target in this data set is T1, SATB1 80 kDa deltaSATB1 (bacterially produced) (Homo sapiens) (UniProt Q01826).
T1 sequence: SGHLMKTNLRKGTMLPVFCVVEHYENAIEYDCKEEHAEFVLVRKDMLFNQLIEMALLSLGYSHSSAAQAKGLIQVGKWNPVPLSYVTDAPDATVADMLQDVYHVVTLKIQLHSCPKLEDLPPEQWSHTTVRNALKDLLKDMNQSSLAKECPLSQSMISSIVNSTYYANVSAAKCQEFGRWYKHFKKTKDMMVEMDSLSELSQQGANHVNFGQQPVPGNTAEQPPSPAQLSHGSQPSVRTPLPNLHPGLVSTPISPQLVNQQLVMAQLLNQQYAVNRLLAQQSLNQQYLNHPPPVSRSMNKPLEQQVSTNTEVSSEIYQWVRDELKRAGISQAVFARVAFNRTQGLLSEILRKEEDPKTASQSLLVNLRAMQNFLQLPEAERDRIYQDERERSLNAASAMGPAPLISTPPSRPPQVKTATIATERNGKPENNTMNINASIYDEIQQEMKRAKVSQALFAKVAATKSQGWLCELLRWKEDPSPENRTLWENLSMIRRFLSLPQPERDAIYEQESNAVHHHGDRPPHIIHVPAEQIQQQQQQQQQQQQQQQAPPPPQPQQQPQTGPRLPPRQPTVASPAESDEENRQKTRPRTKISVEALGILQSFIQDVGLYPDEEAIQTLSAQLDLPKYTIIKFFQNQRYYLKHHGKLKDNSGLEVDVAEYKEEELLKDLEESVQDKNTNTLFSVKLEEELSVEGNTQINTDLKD
Briefly: EMSA.

“TCTTTAATTTCTAATATATTTAGAATTC (double strand) [wild-type (25)2]”: the koff turned out to be 0.0167 s⁻¹.
